Source: publication PMC12749748 (Nature Communications, 2025)

Molecular target: the molecule itself
Test: cryo-EM structure; IRE1:G6374:VCB complex purified by SEC, cross-linked with 500 µM BS3, 0.005% CTAB added; map at ~2.6 Å

B1: Recombinant human IRE1.KR (G547-L977) (domain or fragment, UniProt O75460 547-977, looked up)
chain: GSSPSLEQDDGDEETSVVIVGKISFCPKDVLGHGAEGTIVYRGMFDNRDVAVKRILPECFSFADREVQLLRESDEHPNVIRYFCTEKDRQFQYIAIELCAATLQEYVEQKDFAHLGLEPITLLQQTTSGLAHLHSLNIVHRDLKPHNILISMPNAHGKIKAMISDFGLCKKLAVGRHSFSRRSGVPGTEGWIAPEMLSEDCKENPTYTVDIFSAGCVFYYVISEGSHPFGKSLQRQANILLGACSLDCLHPEKHEDVIARELIEKMIAMDPQKRPSAKHVLKHPFFWSLEKQLQFFQDVSDRIEKESLDGPIVKQLERGGRAVVKMDWRENITVPLQTDLRKFRTYKGGSVRDLLRAMRNKKHHYRELPAEVRETLGSLPDDFVCYFTSRFPHLLAHTYRAMELCSHERLFQPYYFHEPPEPQPPVTPDAL
stoichiometry N: 2
